B1: recombinant ICOS protein (R&D Systems) (receptor, human, UniProt Q9Y6W8 21-141, looked up)
chain: EINGSANYEMFIFHNGGVQILCKYPDIVQQFKMQLLKGGQILCDLTKTKGSGNTVSIKSLKFCHSQLSNNSVSFFLYNLDHSHANYYFCNLSIFDPPPFKVTLTGGYLHIYESQLCCQLKF
notes: Bought; also called ICOS receptor
B2: rabbit Fc-tagged recombinant human ICOS (Fc fusion, UniProt Q9Y6W8 21-140, looked up, not shown: a dimerising Fc or GST)
chain: EINGSANYEMFIFHNGGVQILCKYPDIVQQFKMQLLKGGQILCDLTKTKGSGNTVSIKSLKFCHSQLSNNSVSFFLYNLDHSHANYYFCNLSIFDPPPFKVTLTGGYLHIYESQLCCQLK
notes: Generated in-house; also called dimeric human ICOS; Fc-fusion version of the recombinant ICOS protein
B3: H2L5 IgG4PE (antibody, V domains shown)
VH: QVQLVQSGAEVKKPGSSVKVSCKASGYTFTDYAMHWVRQAPGQGLEWMGLISIYSDHTNYNQKFQGRVTITADKSTSTAYMELSSLRSEDTAVYYCGRNNYGNYGWYFDVWGQGTTVTVSS
VL: EIVLTQSPATLSLSPGERATLSCSASSSVSYMHWYQQKPGQAPRLLIYDTSKLASGIPARFSGSGSGTDYTLTISSLEPEDFAVYYCFQGSGYPYTFGQGTKLEIK
notes: Humanized variant of murine clone 422.2; human IgG4 with S228P and L235E (EU numbering), called IgG4PE; also called H2L5 hIgG4PE; ICOS IgG4PE

Columns and labels:
[1] = target: T1, human ICOS ligand (B7-H2) (human, UniProt O75144 19-258, limits assumed); test: MSD plate assay: 1 µg/mL human ICOS ligand (B7-H2) on plate-coated recombinant ICOS, detected with biotinylated anti-ICOS-L and sulfo-tag streptavidin
T1 construct: also called native ICOS-L; CD275
T1 sequence (looked up): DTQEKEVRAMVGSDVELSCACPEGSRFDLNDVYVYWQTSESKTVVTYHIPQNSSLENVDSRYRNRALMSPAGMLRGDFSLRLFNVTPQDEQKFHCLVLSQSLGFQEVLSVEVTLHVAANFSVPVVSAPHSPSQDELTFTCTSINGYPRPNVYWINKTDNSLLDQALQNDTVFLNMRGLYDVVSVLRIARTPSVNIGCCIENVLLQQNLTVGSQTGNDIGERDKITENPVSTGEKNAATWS
Protocol: (§1) MSD plates were incubated overnight at 4° C. with 10 μg/mL recombinant ICOS protein (R&D Systems) diluted in PBS. […] Sulfo-tagged streptavidin at 10 μg/mL in Diluent 100 was used for detection of the biotinylated ligand. All incubations were at room temperature for one hour on a plate shaker unless otherwise noted. The plates were read immediately following MSD Readbuffer addition on a MSD MESO Quick Plex SQ 120 and data analyzed on MSD workbench software (Meso Scale Discovery).

[2] = target: T1, human ICOS ligand (B7-H2); test: Biacore (SPR), human ICOS-L on dimeric human ICOS
[3] = target: T1, human ICOS ligand (B7-H2); test: Biacore sensorgrams with fitted curves, ICOS-L on dimeric human ICOS
[4] = target: B2; test: Biacore (SPR), column HUMAN kd (1/s)
From the text: (§2) The ICOS binding data was fitted to a 1:1 kinetics model using the T200 data analysis software.

human FcγR IIb (human) = human FcγR IIb (human) (UniProt P31994); test: SPR (ProteOn XPR36; table title says BIAcore), His-tagged FcγR captured, antibody as analyte, equilibrium model
human FcγR I (human) = human FcγR I (human) (UniProt P12314); test: as above
[5] = target: human FcγR IIa (R131) (human) (UniProt P12318); test: as above
[6] = target: B2; test: BIAcore target capture, capture level hICOS 23.7 RU, Rmax 26.5 RU
[7] = target: rabbit Fc-tagged recombinant Cynomolgus ICOS (cynomolgus macaque); test: Biacore (SPR), column MONKEY ka (1/Ms)
[8] = target: rabbit Fc-tagged recombinant Cynomolgus ICOS (cynomolgus macaque); test: Biacore (SPR), column MONKEY kd (1/s)
[9] = target: B2; test: BIAcore target capture, capture level hICOS 39.8 RU, Rmax 40.5 RU
[10] = target: B1; test: MSD competition assay on plate-coated ICOS; blocked ligand: human ICOS ligand at 1 ug/mL
Protocol: as §1, with “Read buffer” for “Readbuffer”, “(Meso-Scale, Rockville, Md.).” for “(Meso Scale Discovery).”

[11] = target: B1; test: MSD competition assay: plate-coated recombinant ICOS, H2L5 IgG4PE titrated against 1 µg/mL human ICOS ligand (B7-H2); inhibition is partial
Protocol: as §1

human ICOS on cells = target: T2, human ICOS on cells (human, UniProt Q9Y6W8 21-199); test: cell-based or functional assay
T2 sequence (looked up): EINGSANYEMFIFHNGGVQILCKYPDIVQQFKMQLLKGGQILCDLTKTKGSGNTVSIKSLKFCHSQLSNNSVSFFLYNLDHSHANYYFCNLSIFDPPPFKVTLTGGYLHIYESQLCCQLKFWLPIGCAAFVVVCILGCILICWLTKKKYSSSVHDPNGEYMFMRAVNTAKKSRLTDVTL

[12] = target: B2; test: SPR, Biacore; affinity of H2L5 for dimeric human ICOS against that of ICOS-L
[13] = target: B2; test: SPR, Biacore T200, Fc-tagged recombinant human ICOS, 1:1 kinetics model
From the text: as §2

[14] = target: rabbit Fc-tagged recombinant Cynomolgus ICOS (cynomolgus macaque); test: SPR, Biacore T200, Fc-tagged recombinant cynomolgus ICOS, 1:1 kinetics model
[15] = target: B2; test: Biacore (SPR), column HUMAN ka (1/Ms)
From the text: as §2

Sequence of human FcγR IIa (R131) (human) (P12318 36-218 H167R limits assumed): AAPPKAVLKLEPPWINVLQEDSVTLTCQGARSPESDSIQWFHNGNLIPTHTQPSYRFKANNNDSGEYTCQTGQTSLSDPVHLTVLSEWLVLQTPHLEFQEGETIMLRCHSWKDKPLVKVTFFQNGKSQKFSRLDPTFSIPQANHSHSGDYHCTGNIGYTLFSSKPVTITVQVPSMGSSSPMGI
Sequence of human FcγR IIb (human) (P31994 46-217 limits assumed): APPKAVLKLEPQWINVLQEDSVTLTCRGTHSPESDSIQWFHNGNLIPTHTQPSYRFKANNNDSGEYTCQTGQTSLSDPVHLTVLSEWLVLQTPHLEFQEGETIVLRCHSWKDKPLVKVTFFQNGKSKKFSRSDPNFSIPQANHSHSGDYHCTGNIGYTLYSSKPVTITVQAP
Sequence of human FcγR I (human) (P12314 16-288 limits assumed): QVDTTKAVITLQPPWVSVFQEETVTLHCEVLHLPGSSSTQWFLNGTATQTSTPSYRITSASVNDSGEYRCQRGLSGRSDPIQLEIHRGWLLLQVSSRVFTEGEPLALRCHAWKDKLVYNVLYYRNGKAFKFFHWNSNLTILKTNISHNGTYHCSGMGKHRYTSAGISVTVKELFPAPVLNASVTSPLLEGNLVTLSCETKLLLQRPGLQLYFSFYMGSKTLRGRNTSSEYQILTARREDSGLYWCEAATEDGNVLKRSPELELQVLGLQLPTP

B1
binding result [1]: binds

B2
Kd [2]: 22.6 nM
Kd [3]: 22.6 nM

B3
koff [4]: 0.000396 s⁻¹
Kd (human FcγR IIb (human)): 1470 nM
Kd (human FcγR I (human)): 645 nM
Kd [5]: 2500 nM
stoichiometry [6]: 0.6
kon [7]: 391000 M⁻¹ s⁻¹
koff [8]: 0.000371 s⁻¹
stoichiometry [9]: 0.5
IC50 (read off the curve) [10]: ~2 µg/mL
IC50 (read off the curve) [11]: ~2 µg/mL
EC50 of IFNγ induction, isolated human CD4+ T cells, immobilized format, first donor (human ICOS on cells): 3.8 µg/mL
EC50 of IFNγ induction, isolated human CD4+ T cells, immobilized format, second donor (human ICOS on cells): 4.5 µg/mL
EC50 of IFNγ induction, isolated human CD4+ T cells, soluble format, first donor (human ICOS on cells): 6 µg/mL
EC50 of IFNγ induction, isolated human CD4+ T cells, soluble format, second donor (human ICOS on cells): 4.3 µg/mL
fold higher affinity than native ICOS-L/CD275 [12]: ~17 fold
Kd [13]: 1.34 nM
Kd [14]: 0.95 nM
kon [15]: 297000 M⁻¹ s⁻¹
